Blank lines part the entries; values can stand above or below the binder they belong to. Numbered stars: 1 amine (or outer) side, 2 acyl side, 3 side chain; on linkers, the order of the positions; unused ones are H or OH. Bridge positions count the residues as written; N and C are the ends. Square brackets hold non-standard residues; d marks the D form. Tyr(OMe) = COc1ccc(C[C@H](N[*:1])C(=O)[*:2])cc1; Trp(5-F) = N[C@@H](Cc1c[nH]c2ccc(F)cc12)C(=O)O; mXylylene = c1cc(C[*:1])cc(C[*:2])c1; Mpa = O=C(O)CCS
How the values were obtained:
biotinylated PCSK9 [1] = target: T1, biotinylated PCSK9 (UniProt Q8NBP7 31-692, limits assumed, biotinylated (site not stated)); assay: given in the description of the Alexa FRET Standard assay; method not stated
T1 construct: also called europium-labeled PCSK9

biotinylated PCSK9 [2] = target: T1, biotinylated PCSK9; assay: given in the description of the Alexa FRET Plus assay; method not stated

T1 sequence (Q8NBP7 31-692 limits assumed): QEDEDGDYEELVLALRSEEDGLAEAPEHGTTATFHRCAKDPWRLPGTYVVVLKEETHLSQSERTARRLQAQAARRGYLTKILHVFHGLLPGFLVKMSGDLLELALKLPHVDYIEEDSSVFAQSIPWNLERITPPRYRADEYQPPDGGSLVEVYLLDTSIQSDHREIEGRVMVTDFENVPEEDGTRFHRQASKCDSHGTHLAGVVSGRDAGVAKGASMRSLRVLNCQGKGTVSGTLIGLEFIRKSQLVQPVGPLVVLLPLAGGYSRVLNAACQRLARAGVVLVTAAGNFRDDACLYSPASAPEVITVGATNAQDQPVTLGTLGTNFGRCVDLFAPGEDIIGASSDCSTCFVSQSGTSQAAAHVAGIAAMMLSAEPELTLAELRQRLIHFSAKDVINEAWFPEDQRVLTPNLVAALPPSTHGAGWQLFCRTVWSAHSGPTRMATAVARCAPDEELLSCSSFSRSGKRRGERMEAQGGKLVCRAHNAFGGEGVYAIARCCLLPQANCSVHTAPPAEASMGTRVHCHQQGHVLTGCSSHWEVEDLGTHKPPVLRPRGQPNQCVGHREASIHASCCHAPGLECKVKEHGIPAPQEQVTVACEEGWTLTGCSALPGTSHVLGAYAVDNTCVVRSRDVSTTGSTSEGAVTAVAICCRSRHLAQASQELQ

- Kd (biotinylated PCSK9 [1]): 83 nM
B1: Reagent A (peptide)
peptide: [Mpa]K(ALEXAFLUOR 647)G[Trp(5-F)][Trp(5-F)]DHY[2‑methylproline]C-NH2
modifications: linker N-10 via mXylylene
notes: also called AlexaFluor647 (AF) tagged cyclic peptide; AF cyclic peptide

- Kd (biotinylated PCSK9 [2]): 35 nM
B2: Reagent B (peptide)
peptide: [Mpa]K(ALEXAFLUOR 647)[dA][Trp(5-F)][Trp(5-F)]DH[Tyr(OMe)][2‑methylproline]C-NH2
modifications: linker N-10 via mXylylene
notes: as for B1

— US20220089640A1 (published 2022)
